The source of these data is paper PMC10888616, “Pleiotropic Effects of PhaR Regulator in Bradyrhizobium diazoefficiens Microaerobic Metabolism”.

Data set [1] has as its target recombinant untagged PhaR protein of Bradyrhizobium diazoefficiens (Bradyrhizobium diazoefficiens). Put plainly: SEC; Superdex 75 10/300 GL, mIVT buffer at pH 8 (40 mM Tris-HCl, 150 mM KCl, 0.1 mM EDTA, 0.1 mM DTT), 200 uL of untagged PhaR at 5 to 30 uM, 0.5 mL/min; tetramer to monomers; the monomer peak increased at lower concentrations. Background: SEC sorts molecules by how far they enter the pores of the column.

Data set [2] concerns the target T1, PhaR (Bradyrhizobium diazoefficiens USDA 110, UniProt Q89XT0 1-197).
T1 sequence: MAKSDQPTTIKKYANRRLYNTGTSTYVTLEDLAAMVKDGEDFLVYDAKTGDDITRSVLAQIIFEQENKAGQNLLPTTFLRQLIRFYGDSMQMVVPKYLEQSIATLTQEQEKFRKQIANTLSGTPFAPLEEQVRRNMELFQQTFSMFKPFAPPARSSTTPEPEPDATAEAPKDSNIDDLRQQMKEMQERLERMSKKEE
Kind of data set: EMSA; shift at 0.5 uM PhaR; mIVT buffer: 40 mM Tris-HCl pH 7.0, 150 mM KCl, 0.1 mM EDTA, 0.1 mM DTT; 10 uL, 2 ng DNA, 0-2 uM PhaR, 30 min room temperature; 6% native PAGE 0.5X TBE, SYBR Gold. As to conditions: protein: recombinant; tags: untagged (C-terminal intein-CBD removed, IMPACT); chain copies: 4; blunt. On the technique in general: Mobility shift assays separate free from complexed probe on a gel.

Data set [3] addresses T1, PhaR. Put plainly: EMSA; mutation did not affect interaction at 1-2 uM PhaR; mIVT buffer: 40 mM Tris-HCl pH 7.0, 150 mM KCl, 0.1 mM EDTA, 0.1 mM DTT; 10 uL, 2 ng DNA, 0-2 uM PhaR, 30 min room temperature; 6% native PAGE 0.5X TBE, SYBR Gold. As to conditions: protein: recombinant; tags: untagged (C-terminal intein-CBD removed, IMPACT); chain copies: 4; blunt.
Data set [4] deals with T1, PhaR. Put plainly: EMSA; mIVT buffer: 40 mM Tris-HCl pH 7.0, 150 mM KCl, 0.1 mM EDTA, 0.1 mM DTT; 10 uL, 2 ng DNA, 0-2 uM PhaR, 30 min room temperature; 6% native PAGE 0.5X TBE, SYBR Gold. As to conditions: protein: recombinant; tags: untagged (C-terminal intein-CBD removed, IMPACT); chain copies: 4; blunt.

As a reminder, the stoichiometry N is a count of units in the complex or per binding partner. For the molecule “recombinant untagged PhaR protein of Bradyrhizobium diazoefficiens (natural protein)”, the stoichiometry N in data set [1] was 4.

B1: phaP1 67 bp wild type (5155_2) (dsDNA)
DNA 1: GATCTAGTTTTTGTGCGACGCACAAGATTCTTGACTTTTTTGTGCGTTGCACTAATTGTGGGCAGAG
DNA 2: CTCTGCCCACAATTAGTGCAACGCACAAAAAAGTCAAGAATCTTGTGCGTCGCACAAAAACTAGATC
As for B1, the binding result in data set [2] is given as “binds”.

B2: blr4358 oligo, long PhaR box mutated (blr4358_EMSA_2) (dsDNA)
DNA 1: CGCCGGATCAGCAATAAAATATAAATTAATATAAGAAGGTCTCCAA
DNA 2: TTGGAGACCTTCTTATATTAATTTATATTTTATTGCTGATCCGGCG
As to B2, in data set [3], the binding result was “binds”.

B3: blr4358 oligo wild type (blr4358_EMSA_1) (dsDNA)
DNA 1: CGCCGGATCAGCCCGCCAAGATCAAGGCCGCGAAGAAGGTCTCCAA
DNA 2: TTGGAGACCTTCTTCGCGGCCTTGATCTTGGCGGGCTGATCCGGCG
As to B3, in data set [4], the binding result is “binds”.
